Test results: patent US20050196844A1

Biological target: taxol stabilized microtubules prepared from phosphocellulose purified tubulin
Experiment: co-sedimentation with taxol stabilized microtubules through a sucrose cushion, Western blot of pellet and supernatant

Row | Substance | binding efficiency [%]
1 | E. coli synthesized tau (352 residue isoform) phosphorylated in vitro by fyn (from UniProt P10636 2-758) | 50
2 | E. coli synthesized tau (352 residue isoform), non-phosphorylated (from UniProt P10636 2-758) | 50
